This note sets out measurements from the RNAGym collection of RNA variant scans (doi:10.7554/elife.80360).

B1: Hairpin Ribozyme (parent)
chain: GUCCUCUUUCACGUGCGCGUGAAAGAGAGAAGUGAACCAGAGAAACACACGUUGUGGUAUAUUACCUGGUA

Variants of B1 are the subject of the series. Description: self-cleavage, relative activity (ratio to wild type); higher = more cleavage; co-transcriptional.
For the variant A41C U58A, the self-cleavage came to 1.07.

As for C6U G17C, the self-cleavage stood at 0.434.

On to U20A C37G, for which the self-cleavage amounted to 0.375.

G29U C50U: the self-cleavage is 0.163.

Take C6G U63C: the self-cleavage was 0.142.

With U5C C6A, the self-cleavage turned out to be 0.393.

As for C37U G42C, the self-cleavage was 0.226.

In the case of G19A G29U, the self-cleavage amounted to 0.21.

Turning to G13C A59C, the self-cleavage was determined as 0.11.

As for C6A U67A, the self-cleavage was determined as 0.144.

Take A35U C37G: the self-cleavage amounted to 0.194.

For U55G G69C, the self-cleavage worked out at 0.257.

In the case of U62C U70A, the self-cleavage was 0.194.

For the variant A43G U70G, the self-cleavage is 0.288.

C10A U53C: the self-cleavage was 0.888.

Consider A35C A49C, for which the self-cleavage was 0.147.

As for A23U G32U, the self-cleavage turned out to be 0.19.

For G29C C66G, the self-cleavage is 0.137.

With U8C A23U, the self-cleavage amounted to 0.841.

Turning to G17U U58G, the self-cleavage was determined as 0.644.

Take U52C G56C: the self-cleavage worked out at 0.165.

For U14C C50U, the self-cleavage was determined as 0.265.

Take A49G C65A: the self-cleavage came out at 0.42.

Take U14A G19U: the self-cleavage is 0.736.

As for G27C A49U, the self-cleavage came to 0.129.

Consider U33C U52C, for which the self-cleavage came to 0.177.

As for U33G A47G, the self-cleavage came to 0.0744.

G42U U60C: the self-cleavage was 0.241.

As for G1C U70A, the self-cleavage was 0.208.

Regarding G40U C50A, the self-cleavage is 0.0746.

For C12G U58C, the self-cleavage is 0.762.

As to C18U U20A, the self-cleavage amounted to 0.848.

For the variant A23U G56U, the self-cleavage turned out to be 0.184.

Consider C3U A61U, for which the self-cleavage came out at 0.227.

For the variant A11C G54C, the self-cleavage came to 0.378.

For the variant A47U A49U, the self-cleavage turned out to be 0.149.

As for G51U A61C, the self-cleavage amounted to 0.109.

For the variant C6U C12U, the self-cleavage amounted to 0.696.

In the case of A36G U52A, the self-cleavage amounted to 0.791.

As to C3G C12U, the self-cleavage was determined as 0.26.

With U8G A44U, the self-cleavage was 0.184.

As for U14G U52C, the self-cleavage turned out to be 0.966.

For U9G C37U, the self-cleavage is 0.5.

For the variant U2A A59U, the self-cleavage was 0.141.

For the variant U62C A64U, the self-cleavage was 0.187.

Turning to C10U A45U, the self-cleavage was 0.111.

In the case of A24U U55A, the self-cleavage stood at 0.186.

As for G13A U67C, the self-cleavage turned out to be 0.27.

On to U7C C65A, for which the self-cleavage turned out to be 0.684.

In the case of U70A A71C, the self-cleavage is 1.21.

In the case of U20C G34C, the self-cleavage was 1.45.

Consider A24U U63C, for which the self-cleavage stood at 0.233.

G27C A43G: the self-cleavage is 0.107.

Regarding G40U A41C, the self-cleavage is 0.255.

Consider G19A C37G, for which the self-cleavage is 0.188.

Consider U9A G15U, for which the self-cleavage worked out at 0.864.

Turning to C46U A47U, the self-cleavage came out at 0.163.

With U60C A64C, the self-cleavage worked out at 0.201.

Consider A28C G54A, for which the self-cleavage was determined as 0.301.

As to A35G A47C, the self-cleavage amounted to 0.312.

Turning to U2C G13A, the self-cleavage came to 0.217.

For A23C A47G, the self-cleavage came out at 0.132.

Regarding G17A A43U, the self-cleavage is 0.105.

G13C G54C: the self-cleavage came out at 0.161.

In the case of U7A U63A, the self-cleavage is 0.181.

For U7C U9A, the self-cleavage is 0.607.

With A61U U62G, the self-cleavage worked out at 0.0473.

On to G17A A36C, for which the self-cleavage came to 0.607.

Turning to G17U A31C, the self-cleavage was 0.224.

Regarding G25U C48G, the self-cleavage turned out to be 0.129.

As to U8A C37A, the self-cleavage is 0.288.

For the variant A49G G54U, the self-cleavage was 0.541.

In the case of G51A G54A, the self-cleavage was 0.62.

As to C50U G51U, the self-cleavage is 0.424.

For the variant C4A C48U, the self-cleavage is 0.15.

Consider C4A C48G, for which the self-cleavage is 0.207.

Consider G56A A59U, for which the self-cleavage was 0.125.

In the case of C4G U58C, the self-cleavage is 0.403.

On to G17U G21C, for which the self-cleavage stood at 0.661.

As for C6G U33G, the self-cleavage amounted to 0.0659.

For A22G U33A, the self-cleavage was 0.115.

As to G29U C48U, the self-cleavage turned out to be 0.124.

Consider G1C U52G, for which the self-cleavage is 0.206.

Turning to U52A U58G, the self-cleavage turned out to be 0.678.

Take A43U G68U: the self-cleavage is 0.223.

On to U7A A39C, for which the self-cleavage worked out at 0.498.

On to A11U G29U, for which the self-cleavage stood at 0.0998.

As to U14A A71G, the self-cleavage was 1.08.

Consider A26U A39U, for which the self-cleavage is 0.266.

In the case of A22C A47U, the self-cleavage was 0.208.

Turning to G15U A39C, the self-cleavage came to 0.7.

As to U5A U62A, the self-cleavage was 0.139.

Turning to C6A A23U, the self-cleavage is 0.503.

G34C A47U: the self-cleavage is 0.465.

Consider G27U U62G, for which the self-cleavage turned out to be 0.0869.

A44U G54C: the self-cleavage worked out at 0.0888.

For the variant A47C U58G, the self-cleavage amounted to 0.172.

As to A41C U63C, the self-cleavage is 0.192.

Turning to G15U A47C, the self-cleavage was found to be 0.324.

As for U62G U63A, the self-cleavage turned out to be 0.0488.

In the case of G27U C50U, the self-cleavage worked out at 0.214.

Turning to U8A A59C, the self-cleavage is 0.165.

In the case of U55A A71C, the self-cleavage worked out at 0.697.

C10A U62A: the self-cleavage came out at 0.238.

With G19U U60G, the self-cleavage was 0.444.

For A11C A23G, the self-cleavage is 0.642.

Consider G17A C37A, for which the self-cleavage amounted to 0.251.

With A59U A61G, the self-cleavage is 0.166.

Turning to U14C G29U, the self-cleavage stood at 0.198.

Consider G42A A43U, for which the self-cleavage worked out at 0.215.

For the variant U8A G17C, the self-cleavage is 0.63.

For the variant C6U A61C, the self-cleavage is 0.296.

For the variant U58C A64G, the self-cleavage turned out to be 0.502.

With U5A U60G, the self-cleavage was 0.29.

As for A30C G40A, the self-cleavage stood at 0.116.

In the case of C18U U70C, the self-cleavage was found to be 0.984.

In the case of G25U A36C, the self-cleavage is 0.463.

With C10A G40A, the self-cleavage was found to be 0.219.

Consider C46U A71C, for which the self-cleavage was found to be 0.151.

Consider U7C A43U, for which the self-cleavage turned out to be 0.151.

On to G54C C66U, for which the self-cleavage stood at 0.254.

Consider C10A A59C, for which the self-cleavage was 0.192.

For the variant G21A A22G, the self-cleavage is 0.728.

U5C C38G: the self-cleavage was found to be 0.115.

On to U9C C10G, for which the self-cleavage is 0.582.

As for U2C C16A, the self-cleavage is 0.0439.

As to A45U U63G, the self-cleavage was found to be 0.0513.

For U63A C66A, the self-cleavage is 0.118.

In the case of A31U G32C, the self-cleavage turned out to be 0.165.

In the case of G34A A41G, the self-cleavage was 1.3.

Regarding A41C A47G, the self-cleavage is 0.0213.

Consider U20G A45U, for which the self-cleavage is 0.117.

Regarding C3U U52A, the self-cleavage amounted to 0.522.

For the variant A24U A44U, the self-cleavage was determined as 0.123.

For C12G U67A, the self-cleavage came out at 0.202.

A35U U63G: the self-cleavage is 0.147.

As for A26C A43U, the self-cleavage was found to be 0.224.

For U52A G68U, the self-cleavage is 0.309.

In the case of A11U A30U, the self-cleavage is 0.133.

As to U20A A43U, the self-cleavage stood at 0.0666.

Turning to G29A G34A, the self-cleavage turned out to be 0.201.

Take A28G U62C: the self-cleavage is 0.302.

Consider A43C G57A, for which the self-cleavage stood at 0.137.

Regarding U20A C50U, the self-cleavage worked out at 0.5.

As to A45C A49G, the self-cleavage was 0.0463.

In the case of G29U C38U, the self-cleavage amounted to 0.1.

As for U7A C46A, the self-cleavage was 0.0948.

For the variant U53G A64U, the self-cleavage amounted to 0.144.

As for U8A C38U, the self-cleavage amounted to 0.357.

For the variant A26C C37U, the self-cleavage came to 0.446.

In the case of A28C A30C, the self-cleavage worked out at 0.0316.

Take U70C: the self-cleavage turned out to be 0.924.

Consider U5G U53A, for which the self-cleavage was 0.455.

Take A35U U52C: the self-cleavage came to 0.811.

In the case of A24C A39U, the self-cleavage is 0.573.

As for A31C G34U, the self-cleavage was 0.0576.

With C16A U63A, the self-cleavage amounted to 0.132.

For G15U A31G, the self-cleavage worked out at 0.795.

Regarding G13A A23G, the self-cleavage is 0.767.

A35U C50G: the self-cleavage turned out to be 0.369.

G29U G40C: the self-cleavage is 0.0749.

For A23U G51C, the self-cleavage turned out to be 0.832.

As for G32C C38U, the self-cleavage is 0.181.

Consider G34A G57U, for which the self-cleavage was determined as 0.461.

On to U5C U20G, for which the self-cleavage worked out at 0.508.

Turning to U8G A49U, the self-cleavage is 0.164.

Turning to G27A C48G, the self-cleavage was 0.151.
